This is an account of results in paper PMC12420816 (Nature Communications, 2025).

The target in this experiment is SARS-CoV-2 nsp16 with uncleaved His6-tag (SARS-CoV-2) (UniProt P0DTD1). In words: native MS.

As to “MERS-CoV nsp7-11 polyprotein, tag-free with authentic termini (domain or fragment)”, the percent of signal as complex was under 5%.
